Paper PMC12811900 (Nature microbiology, 2025)

Molecular target: the molecule itself
Experiment: cryo-EM structure

B1: Sth enolase, untagged, expressed in E. coli (enzyme, Streptococcus thermophilus DGCC7710)
chain: MSIITDVYAREVLDSRGNPTLEVEVYTESGAFGRGMVPSGASTGEHEAVELRDGDKARYGGLGTQKAVDNVNNVIAEHIIGFDVRDQQGIDRAMIALDGTPNKGKLGANAILGVSIAVARAAADYLEVPLYSYLGGFNTKVLPTPMMNIINGGSHSDAPIAFQEFMIVPAGAPTFKEALRWGAEIFHALKKILKERGLETAVGDEGGFAPRFNGTEDGVETIIKAIEAAGYVPGKDVFIGLDCASSEFYDAERKVYDYTKFEGEGAAVRTAAEQIDYLEELVNKYPIITIEDGMDENDWDGWKALTERLGGKVQLVGDDFFVTNTAYLEKGIAEHAANSILIKVNQIGTLTETFDAIEMAKEAGYTAVVSHRSGETEDSTIADIAVATNAGQIKTGSLSRTDRIAKYNQLLRIEDQLGEVAEYRGLKSFYNLKK
- stoichiometry N: 8
